The values below come from doi:10.1101/2023.04.13.536481 (bioRxiv, 2023).

This data set concerns the molecule itself. Nature of the data set: crystal structure.

B1: LIN-42 N-terminus residues 41-315 (domain or fragment, C. elegans)
chain: GAMDPEFNTWSSSSVEFLDDADDNRLLFTCTFTLPHGTVLSSATYADGFHEQYLTIGDNFLARLEPKGQSFILSAAAASVKQRIFARVTMPDGALRACELLCEFETDRAKITVLALRSAFSLQASHVSSNFHVFTFITKHSSTCALTHIDYASIPYLGLLPTDLIGKSLLAFVYSPDVHVVRQAHIDLHNSRGKIVKSIADLRLVAHNGSILRCQTEWSAYVNPWTRKMELVVARHRICSLPIGDSDVISSPPPGIQSNTLPPVMAKTFEDELRTIMNKPVP
For the protein B1, the binding result was “binds”.
